# B1: r16_88_TrROS_Hall (parent)
# chain: EVIELKIKFKTPEQREKLKEIAKKLNAEVVEEKDGEVIIRFKTPEQAERALKEAEKLGAEVEL
# Variants of: B1
# Experiment: folding stability dG (cDNA display proteolysis); higher = more stable
# Details: PBS, room temperature
row,Variant,folding stability dG [kcal/mol]
1,EVIELKIKFKTPEQREKLKEIAKKLNAEVVEEKDGEVIIRFKTPEQAERALKEAEKLGAEVEG [L63G],4.38
2,EVIELKIKFKTPEQREKLKEIAKKLNAEVVEEKDGEVIIRFKTPEQAWRALKEAEKLGAEVEL [E48W],4.47
3,EVIELKIKFKTPEQREKLKEIAKKLNAEVVEEKDGEVIIRFKTPEQAERALKEALKLGAEVEL [E55L],4.45
4,EVIELKIKFKTPEQIEKLKEIAKKLNAEVVEEKDGEVIIRFKTPEQAERALKEAEKLGAEVEL [R15I],4.37
5,EVIELKIKFKTPEQREKLKEIAKKLNAEVVEEKDGEVIIRFKTPEQAERALKEAEKLFAEVEL [G58F],4.24
6,EVIELKIKFKTPEQREKLKEDAKKLNAEVVEEKDGEVIIRFKTPEQAERALKEAEKLGAEVEL [I21D],3.4
7,EVIELKIKFKTPEQREKLKEKAKKLNAEVVEEKDGEVIIRFKTPEQAERALKEAEKLGAEVEL [I21K],3.78
8,EVIELKIKFKTPEQREKLKERAKKLNAEVVEEKDGEVIIRFKTPEQAERALKEAEKLGAEVEL [I21R],3.62
9,EVIELKIKMKTPEQREKLKEIAKKLNAEVVEEKDGEVIIRFKTPEQAERALKEAEKLGAEVEL [F9M],3.98
10,EVIELKIKFKTPEQREKLKEIAKKLNAEVVEEKDGRVIIRFKTPEQAERALKEAEKLGAEVEL [E36R],4.62
11,EVIELKIKFKTPEQREKLKEIAGKLNAEVVEEKDGEVIIRFKTPEQAERALKEAEKLGAEVEL [K23G],4.43
12,EVIELKIKFKTPEQREKLKEIAKKLNAEVVEEKDGEVIIIFKTPEQAERALKEAEKLGAEVEL [R40I],4.47
13,EVIELKRKFKTPEQREKLKEIAKKLNAEVVEEKDGEVIIRFKTPEQAERALKEAEKLGAEVEL [I7R],3.04
14,EVIELKIKFKTPEQREKLKEIAKKLNAEVVEEKDGEVIIRFKTPEMAERALKEAEKLGAEVEL [Q46M],4.15
15,EVIELKIKFKTPEQREKLKEIAKKLNAEVVEEKDGEVIIRLKTPEQAERALKEAEKLGAEVEL [F41L],4.01
16,EVIELKIKFKTPEQREKLKEIAKKLNAEVVEEKDGEVIIRFKTPEQAERALKEAEQLGAEVEL [K56Q],4.43
17,EVIELKIKFKTPEQREKLKEICKKLNAEVVEEKDGEVIIRFKTPEQAERALKEAEKLGAEVEL [A22C],4.17
18,EVIELKIKFKTPEQREKLKEIAKKLNADVVEEKDGEVIIRFKTPEQAERALKEAEKLGAEVEL [E28D],4.26
19,EVIELKIKFKTPEQREKLKEIAKKLNAEVVEEKDGEVIIRFKTPEQNERALKEAEKLGAEVEL [A47N],3.68
20,EVIELKIKFKTPEQREKLKEIAKKLVAEVVEEKDGEVIIRFKTPEQAERALKEAEKLGAEVEL [N26V],4.35
21,EVIELKIKFKTPEQREKLKEIAKKLNAEVVEEKEGEVIIRFKTPEQAERALKEAEKLGAEVEL [D34E],4.44
22,EVIELKIKFKTPEQREKLKEIAKKLNAEVVEEKDGEVIIRFKTPEQAERALKEAEKLGDEVEL [A59D],4.28

row,Variant,folding stability dG [kcal/mol]
1,EVIELKIKFKTPEQREKLKEIAKKLNAEVVEEKDGEVIIRFKTPEQAERALKEAEKLGQEVEL [A59Q],4.05
2,EVIELKIKFKTPEQREKLKPIAKKLNAEVVEEKDGEVIIRFKTPEQAERALKEAEKLGAEVEL [E20P],3.68
3,EVIELKIKFKTHEQREKLKEIAKKLNAEVVEEKDGEVIIRFKTPEQAERALKEAEKLGAEVEL [P12H],4.59
4,EVIELKIKFKTPEQREKLKEIAKKLNAEKVEEKDGEVIIRFKTPEQAERALKEAEKLGAEVEL [V29K],4.39
5,EVIELKIKFKTPEQREKLKEIAKKLNAEAVEEKDGEVIIRFKTPEQAERALKEAEKLGAEVEL [V29A],4.3
6,EVIELKIKFSTPEQREKLKEIAKKLNAEVVEEKDGEVIIRFKTPEQAERALKEAEKLGAEVEL [K10S],4.16
7,QVIELKIKFKTPEQREKLKEIAKKLNAEVVEEKDGEVIIRFKTPEQAERALKEAEKLGAEVEL [E1Q],4.25
8,EVIELKIKFKTPEQRECLKEIAKKLNAEVVEEKDGEVIIRFKTPEQAERALKEAEKLGAEVEL [K17C],4.36
9,EVIDLKIKFKTPEQREKLKEIAKKLNAEVVEEKDGEVIIRFKTPEQAERALKEAEKLGAEVEL [E4D],4.4
10,EVIELKIKFKTPEQREKLKEIAKKLNAEVVEEKDGEVIIRFKTPEQAEFALKEAEKLGAEVEL [R49F],4.76
11,EVIELKIKFKTPEQREKLKEIAKKLNAEVVEEKDGEVIIRFKTPEQAERAQKEAEKLGAEVEL [L51Q],4.53
12,EVIELKIKFKTPEQREKLKEIAKKLNAEVVEEKDGEVIIRFKTPEQAERASKEAEKLGAEVEL [L51S],4.59
13,EVIELKIKFKTPEQREKLKEIAKKLNAEVEEEKDGEVIIRFKTPEQAERALKEAEKLGAEVEL [V30E],4.59
14,EVIELKIKFKTPEQREKLKEIAKKLNAEVVEEKDGEVIIRFKTPEQAERALKEAEKPGAEVEL [L57P],3.32
15,EVIELKIKFKTPKQREKLKEIAKKLNAEVVEEKDGEVIIRFKTPEQAERALKEAEKLGAEVEL [E13K],4.51
16,EVIELKIKFKTPEQREKLKEIAKKLNAEVVEEKDGEVIIRFKTPEQAERALKEAEKLGAEDEL [V61D],4.72
17,EVIELGIKFKTPEQREKLKEIAKKLNAEVVEEKDGEVIIRFKTPEQAERALKEAEKLGAEVEL [K6G],4.02
18,EVIELKIKFKTPEQREKLKEIAKKLNAEVVFEKDGEVIIRFKTPEQAERALKEAEKLGAEVEL [E31F],4.61
19,EVIELKIKFKTPEQREKLKEIAKKLNAEVVEEKDGEVIIRFKTPEQAERALKLAEKLGAEVEL [E53L],4.61
20,EVIELKIKFKTPEQREKLKEIAKKLNAEVVEEKDGEVIIRFKTPEQAERALKEAEKLGAEVWL [E62W],3.87
21,EVIELKIKFKTPEQREKLKEIAKKLNAEVVEEKDGEVIIRFKTPEQAERALKEAEKLGAEVVL [E62V],4.35
